“And” between values parts separate entries of the source, which are not always exact repeats. Identical values can stand only once.
B1: Lysozyme C, P61626 (parent)
chain: MKALIVLGLVLLSVTVQGKVFERCELARTLKRLGMDGYRGISLANWMCLAKWESGYNTRATNYNAGDRSTDYGIFQINSRYWCNDGKTPGAVNACHLSCSALLQDNIADAVACAKRVVRDPQGIRAWVAWRNRCQNRDVRQYVQGCGV

Variants of: B1
Conditions: Homo sapiens; pH 2.7; Thermal; DSC; glycine 0.05 M; reversible: yes; structure 1LZ1; whole UniProt chain shown

Variant	Tm	change of melting temperature, mutant - wild type (higher = more stable) [°C]	heat capacity change of unfolding [kcal/mol/K]	unfolding enthalpy (calorimetric) [kcal/mol]	unfolding enthalpy (van 't Hoff) [kcal/mol]
MKALIVLGLVLLSVTVQGKVFERCELARTLKRLGMDGYRGISLANWMCLAKWESGYNTRATNYNAGDRSTDYGAFQINSRYWCNDGKTPGAVNACHLSCSALLQDNIADAVACAKRVVRDPQGIRAWVAWRNRCQNRDVRQYVQGCGV [I74A]	64.9 °C				
MKALIVLGLVLLSVTVQGKVFERCELARTLKRLGMDGYRGISLANWMCLAKWESGYNTRATNYNAGDRSTDYGTFQINSRYWCNDGKTPGAVNACHLSCSALLQDNIADAVACAKRVVRDPQGIRAWVAWRNRCQNRDVRQYVQGCGV [I74T]		-12.5	1.08	102	108
MKALIVLGLVLLSVTVQGKVFERCELARTLKRLGMDGYRGISLANWMCLAKWESGYNTRATNYNAGDRSTDYGVFQINSRYWCNDGKTPGAVNACHLSCSALLQDNIADAVACAKRVVRDPQGIRAWVAWRNRCQNRDVRQYVQGCGV [I74V]	61.3 °C and 64.9 °C	-3.6	1.34	114	117
MKALIVLGLVLLSVTVQGKVFERCELARTLKRLGMDGYRGISLANWMCLAKWESGYNTRATNYNAGDRSTDYGGFQINSRYWCNDGKTPGAVNACHLSCSALLQDNIADAVACAKRVVRDPQGIRAWVAWRNRCQNRDVRQYVQGCGV [I74G]	62.2 °C	-2.7			
MKALIVLGLVLLSVTVQGKVFERCELARTLKRLGMDGYRGISLANWMCLAKWESGYNTRATNYNAGDRSTDYGFFQINSRYWCNDGKTPGAVNACHLSCSALLQDNIADAVACAKRVVRDPQGIRAWVAWRNRCQNRDVRQYVQGCGV [I74F]		-15	1.82	102	106
MKALIVLGLVLLSVTVQGKVFERCELARTLKRLGMDGYRGISLANWMCLAKWESGYNTRATNYNAGDRSTDYGIFQANSRYWCNDGKTPGAVNACHLSCSALLQDNIADAVACAKRVVRDPQGIRAWVAWRNRCQNRDVRQYVQGCGV [I77A]	59.7 °C	-5.2	1.46	115	121
MKALIVLGLVLLSVTVQGKVFERCELARTLKRLGMDGYRGISLANWMCLAKWESGYNTRATNYNAGDRSTDYGIFQMNSRYWCNDGKTPGAVNACHLSCSALLQDNIADAVACAKRVVRDPQGIRAWVAWRNRCQNRDVRQYVQGCGV [I77M]	60.7 °C and 64.9 °C	-4.2	1.27	106	115
MKALIVLGLVLLSVTVQGKVFERCELARTLKRLGMDGYRGISLANWMCLAKWESGYNTRATNYNAGDRSTDYGIFQYNSRYWCNDGKTPGAVNACHLSCSALLQDNIADAVACAKRVVRDPQGIRAWVAWRNRCQNRDVRQYVQGCGV [I77Y]		-13.8	1.34	97.8	105
MKALIVLGLVLLSVTVQGKVFERCELARTLKRLGMDGYRGISLANWMCLAKWESGYNTRATNYNAGDRSTDYGIFQGNSRYWCNDGKTPGAVNACHLSCSALLQDNIADAVACAKRVVRDPQGIRAWVAWRNRCQNRDVRQYVQGCGV [I77G]	52.2 °C	-12.7	1.24	106	109
MKALIVLGLVLLSVTVQGKVFERCELARTLKRLGMDGYRGISLANWMCLAKWESGYNTRATNYNAGDRSTDYGIFQVNSRYWCNDGKTPGAVNACHLSCSALLQDNIADAVACAKRVVRDPQGIRAWVAWRNRCQNRDVRQYVQGCGV [I77V]	61.5 °C and 64.9 °C	-3.4	1.2	110	117

Same assay, conditions: Homo sapiens; pH 2.7; 64.9 °C; Thermal; DSC; glycine 0.05 M; reversible: yes; structure 1LZ1; whole UniProt chain shown

Variant	ddG of mutation (higher = less stable) [kcal/mol]
MKALIVLGLVLLSVTVQGKVFERCELARTLKRLGMDGYRGISLANWMCLAKWESGYNTRATNYNAGDRSTDYGTFQINSRYWCNDGKTPGAVNACHLSCSALLQDNIADAVACAKRVVRDPQGIRAWVAWRNRCQNRDVRQYVQGCGV [I74T]	3.63
MKALIVLGLVLLSVTVQGKVFERCELARTLKRLGMDGYRGISLANWMCLAKWESGYNTRATNYNAGDRSTDYGVFQINSRYWCNDGKTPGAVNACHLSCSALLQDNIADAVACAKRVVRDPQGIRAWVAWRNRCQNRDVRQYVQGCGV [I74V]	1.2
MKALIVLGLVLLSVTVQGKVFERCELARTLKRLGMDGYRGISLANWMCLAKWESGYNTRATNYNAGDRSTDYGFFQINSRYWCNDGKTPGAVNACHLSCSALLQDNIADAVACAKRVVRDPQGIRAWVAWRNRCQNRDVRQYVQGCGV [I74F]	4.09
MKALIVLGLVLLSVTVQGKVFERCELARTLKRLGMDGYRGISLANWMCLAKWESGYNTRATNYNAGDRSTDYGIFQANSRYWCNDGKTPGAVNACHLSCSALLQDNIADAVACAKRVVRDPQGIRAWVAWRNRCQNRDVRQYVQGCGV [I77A]	1.72
MKALIVLGLVLLSVTVQGKVFERCELARTLKRLGMDGYRGISLANWMCLAKWESGYNTRATNYNAGDRSTDYGIFQYNSRYWCNDGKTPGAVNACHLSCSALLQDNIADAVACAKRVVRDPQGIRAWVAWRNRCQNRDVRQYVQGCGV [I77Y]	3.78
MKALIVLGLVLLSVTVQGKVFERCELARTLKRLGMDGYRGISLANWMCLAKWESGYNTRATNYNAGDRSTDYGIFQGNSRYWCNDGKTPGAVNACHLSCSALLQDNIADAVACAKRVVRDPQGIRAWVAWRNRCQNRDVRQYVQGCGV [I77G]	3.82
MKALIVLGLVLLSVTVQGKVFERCELARTLKRLGMDGYRGISLANWMCLAKWESGYNTRATNYNAGDRSTDYGIFQVNSRYWCNDGKTPGAVNACHLSCSALLQDNIADAVACAKRVVRDPQGIRAWVAWRNRCQNRDVRQYVQGCGV [I77V]	1.1

Same assay, conditions: Homo sapiens; pH 2.75; Thermal; DSC; glycine 0.05 M; reversible: yes; structure 1LZ1; whole UniProt chain shown

Variant	Tm [°C]	heat capacity change of unfolding [kcal/mol/K]	unfolding enthalpy (calorimetric) [kcal/mol]	unfolding enthalpy (van 't Hoff) [kcal/mol]
MKALIVLGLVLLSVTVQGKVFERCELARTLKRLGMDGYRGISLANWMCLAKWESGYNTRATNYNAGDRSTDYGFFQINSRYWCNDGKTPGAVNACHLSCSALLQDNIADAVACAKRVVRDPQGIRAWVAWRNRCQNRDVRQYVQGCGV [I74F]	50.8	1.89	76	79.3

Same assay, conditions: Homo sapiens; pH 3.06; Thermal; DSC; glycine 0.05 M; reversible: yes; structure 1LZ1; whole UniProt chain shown

Variant	Tm [°C]	heat capacity change of unfolding [kcal/mol/K]	unfolding enthalpy (calorimetric) [kcal/mol]	unfolding enthalpy (van 't Hoff) [kcal/mol]
MKALIVLGLVLLSVTVQGKVFERCELARTLKRLGMDGYRGISLANWMCLAKWESGYNTRATNYNAGDRSTDYGFFQINSRYWCNDGKTPGAVNACHLSCSALLQDNIADAVACAKRVVRDPQGIRAWVAWRNRCQNRDVRQYVQGCGV [I74F]	56.3	1.77	86	89.6

Same assay, conditions: Homo sapiens; pH 2.65; Thermal; DSC; glycine 0.05 M; reversible: yes; structure 1LZ1; whole UniProt chain shown

Variant	Tm [°C]	heat capacity change of unfolding [kcal/mol/K]	unfolding enthalpy (calorimetric) [kcal/mol]	unfolding enthalpy (van 't Hoff) [kcal/mol]
MKALIVLGLVLLSVTVQGKVFERCELARTLKRLGMDGYRGISLANWMCLAKWESGYNTRATNYNAGDRSTDYGIFQMNSRYWCNDGKTPGAVNACHLSCSALLQDNIADAVACAKRVVRDPQGIRAWVAWRNRCQNRDVRQYVQGCGV [I77M]	59.9	1	98.5	108

Same assay, conditions: Homo sapiens; pH 2.8; Thermal; DSC; glycine 0.05 M; reversible: yes; structure 1LZ1; whole UniProt chain shown

Variant	Tm [°C]	heat capacity change of unfolding [kcal/mol/K]	unfolding enthalpy (calorimetric) [kcal/mol]	unfolding enthalpy (van 't Hoff) [kcal/mol]
MKALIVLGLVLLSVTVQGKVFERCELARTLKRLGMDGYRGISLANWMCLAKWESGYNTRATNYNAGDRSTDYGIFQMNSRYWCNDGKTPGAVNACHLSCSALLQDNIADAVACAKRVVRDPQGIRAWVAWRNRCQNRDVRQYVQGCGV [I77M]	62	1.2	103	110

Same assay, conditions: Homo sapiens; pH 2.95; Thermal; DSC; glycine 0.05 M; reversible: yes; structure 1LZ1; whole UniProt chain shown

Variant	Tm [°C]	heat capacity change of unfolding [kcal/mol/K]	unfolding enthalpy (calorimetric) [kcal/mol]	unfolding enthalpy (van 't Hoff) [kcal/mol]
MKALIVLGLVLLSVTVQGKVFERCELARTLKRLGMDGYRGISLANWMCLAKWESGYNTRATNYNAGDRSTDYGIFQMNSRYWCNDGKTPGAVNACHLSCSALLQDNIADAVACAKRVVRDPQGIRAWVAWRNRCQNRDVRQYVQGCGV [I77M]	64.8	1.1	106	114

Same assay, conditions: Homo sapiens; pH 3.13; Thermal; DSC; glycine 0.05 M; reversible: yes; structure 1LZ1; whole UniProt chain shown

Variant	Tm [°C]	heat capacity change of unfolding [kcal/mol/K]	unfolding enthalpy (calorimetric) [kcal/mol]	unfolding enthalpy (van 't Hoff) [kcal/mol]
MKALIVLGLVLLSVTVQGKVFERCELARTLKRLGMDGYRGISLANWMCLAKWESGYNTRATNYNAGDRSTDYGIFQMNSRYWCNDGKTPGAVNACHLSCSALLQDNIADAVACAKRVVRDPQGIRAWVAWRNRCQNRDVRQYVQGCGV [I77M]	66.5	1.15	107	117

Same assay, conditions: Homo sapiens; pH 2.71; Thermal; DSC; glycine 0.05 M; reversible: yes; structure 1LZ1; whole UniProt chain shown

Variant	Tm [°C]	heat capacity change of unfolding [kcal/mol/K]	unfolding enthalpy (calorimetric) [kcal/mol]	unfolding enthalpy (van 't Hoff) [kcal/mol]
MKALIVLGLVLLSVTVQGKVFERCELARTLKRLGMDGYRGISLANWMCLAKWESGYNTRATNYNAGDRSTDYGIFQYNSRYWCNDGKTPGAVNACHLSCSALLQDNIADAVACAKRVVRDPQGIRAWVAWRNRCQNRDVRQYVQGCGV [I77Y]	51.4	1.55	79.3	84.4

Same assay, conditions: Homo sapiens; pH 3.18; Thermal; DSC; glycine 0.05 M; reversible: yes; structure 1LZ1; whole UniProt chain shown

Variant	Tm [°C]	heat capacity change of unfolding [kcal/mol/K]	unfolding enthalpy (calorimetric) [kcal/mol]	unfolding enthalpy (van 't Hoff) [kcal/mol]
MKALIVLGLVLLSVTVQGKVFERCELARTLKRLGMDGYRGISLANWMCLAKWESGYNTRATNYNAGDRSTDYGIFQYNSRYWCNDGKTPGAVNACHLSCSALLQDNIADAVACAKRVVRDPQGIRAWVAWRNRCQNRDVRQYVQGCGV [I77Y]	59.5	1.27	90.6	97

— FireProtDB (doi:10.1093/protein/12.10.841)
